Molecular target: T1, MEIS1 (human, UniProt O00470 1-390)
T1 sequence: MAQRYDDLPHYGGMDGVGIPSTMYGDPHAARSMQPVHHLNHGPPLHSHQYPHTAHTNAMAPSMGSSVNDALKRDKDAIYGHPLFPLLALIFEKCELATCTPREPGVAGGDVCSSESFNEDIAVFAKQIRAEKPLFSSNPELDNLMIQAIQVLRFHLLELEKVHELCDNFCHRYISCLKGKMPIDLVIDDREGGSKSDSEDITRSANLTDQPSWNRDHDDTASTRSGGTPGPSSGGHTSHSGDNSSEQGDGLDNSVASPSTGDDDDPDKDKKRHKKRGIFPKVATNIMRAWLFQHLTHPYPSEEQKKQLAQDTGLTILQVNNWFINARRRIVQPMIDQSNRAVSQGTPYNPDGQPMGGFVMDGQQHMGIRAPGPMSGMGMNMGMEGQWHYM
Experiment: EMSA; EMSA: LightShift Chemiluminescent EMSA kit per manufacturer (buffer not given); protein stock in 50 mM Tris, 200 mM NaCl, 10 mM 2-mercaptoethanol, 10% glycerol, pH 7.5. Pull-down: streptavidin beads, 1 h at 4 C, PBS washes
Settings: protein: recombinant; tags: His6-MBP-TEV, tag removed by TEV protease; label: 5' biotin on both strands; blunt

B1: probe1 (hEC1 MEIS1 site) (dsDNA)
DNA 1: GGAAATGCGGCCCATCAATCATAAACTGATTACAAATTCGTCA
DNA 2: TGACGAATTTGTAATCAGTTTATGATTGATGGGCCGCATTTCC
- binding result: binds

From PMC12085581, “Auricular malformations are driven by copy number variations in a hierarchical enhancer cluster and a dominant enhancer recapitulates human pathogenesis”
